In article PMC8539644:

Target: GerD–mScarlet-I (Bacillus cereus ATCC 14579)
Assay: FRET or BRET; sensitized emission (filter) FRET by wide-field fluorescence microscopy in single dormant B. cereus spores; donor SGFP2, acceptor mScarlet-I; normalized FRET (NFRET) corrected for bleed-through and cross-excitation

| Substance | FRET efficiency |
| --- | --- |
| GerR(A-C-B)–SGFP2 (complex) | 6% |
| GerRB–SGFP2 (natural protein) | 6% |
